This note sets out measurements from the supplement of paper PMC9112550, “Optimization of the antimicrobial peptide Bac7 by deep mutational scanning” (BMC Biology, 2022).

The test system of the data set is Escherichia coli TOP10. The data set is described as follows: shrunken log2 fold change of peptide-encoding DNA abundance (4.5 h post-induction vs induction); higher = less antimicrobial activity (less host growth inhibition). Particulars: time post-induction: 4.5 h; library: site-saturation at positions 5, 18, 19, 20.
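Further: peptides expressed intracellularly from a pBAD plasmid library in pooled LB shake-flask culture, induced with 0.3% L-arabinose, DNA abundance read by NGS, three biological replicates, DESeq2 with apeglm shrinkage.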

Take RRIRFRPPRLPRPRPRPWYYPRP: the “shrunken log2 fold change” value is -0.735. With RRIRQRPPRLPRPRPRPNIPPRP the figure was -0.262; with RRIRKRPPRLPRPRPRPYHPPRP, 0.0155; with RRIRSRPPRLPRPRPRPSADPRP, 0.0633. Next, RRIRHRPPRLPRPRPRPEVHPRP: 0.16; RRIRQRPPRLPRPRPRPILYPRP: 0.0724; RRIRVRPPRLPRPRPRPRICPRP: -0.229.

In the case of RRIRYRPPRLPRPRPRPTYEPRP, the “shrunken log2 fold change” value was determined as 4.06. Next, RRIRERPPRLPRPRPRPFPYPRP: -0.256. Next, RRIRPRPPRLPRPRPRPRCRPRP: 0.217; RRIRVRPPRLPRPRPRPYAHPRP: -0.38. With RRIRRRPPRLPRPRPRPWQMPRP the figure was 0.0303; with RRIRRRPPRLPRPRPRPQDYPRP, -0.268; with RRIRERPPRLPRPRPRPMATPRP, 0.0537. For RRIRFRPPRLPRPRPRPGVMPRP, the “shrunken log2 fold change” value came to 0.238. Next, RRIRGRPPRLPRPRPRPSEPPRP: 0.413; RRIRERPPRLPRPRPRPGCYPRP: -0.151; RRIRMRPPRLPRPRPRPKTAPRP: 2.56.

Take RRIRMRPPRLPRPRPRPRYNPRP: the “shrunken log2 fold change” value is -0.151. Next, RRIRIRPPRLPRPRPRPDSCPRP: -0.972; RRIRCRPPRLPRPRPRPDWYPRP: -0.241.

With RRIRHRPPRLPRPRPRPFSSPRP, the “shrunken log2 fold change” value stood at 0.107. For RRIRSRPPRLPRPRPRPLPCPRP, the “shrunken log2 fold change” value was -0.00277.

For the sequence RRIRERPPRLPRPRPRPHILPRP, the “shrunken log2 fold change” value was -0.245.

On to RRIRVRPPRLPRPRPRPSATPRP, for which the “shrunken log2 fold change” value worked out at 0.43.

Turning to RRIRMRPPRLPRPRPRPAGSPRP, the “shrunken log2 fold change” value stood at 0.2. Turning to RRIRARPPRLPRPRPRPVEVPRP, the “shrunken log2 fold change” value amounted to 0.236. With RRIRRRPPRLPRPRPRPHCQPRP the figure was 0.17; with RRIRMRPPRLPRPRPRPKDTPRP, 1.86; with RRIRDRPPRLPRPRPRPHIQPRP, -0.53.

Take RRIRNRPPRLPRPRPRPYKRPRP: the “shrunken log2 fold change” value is -1.27. Next, RRIRCRPPRLPRPRPRPALHPRP: 0.179; RRIRKRPPRLPRPRPRPGCNPRP: 0.754.

With RRIRQRPPRLPRPRPRPYHEPRP, the “shrunken log2 fold change” value was -0.288. Turning to RRIRARPPRLPRPRPRPHYAPRP, the “shrunken log2 fold change” value is -0.0521. Next, RRIRSRPPRLPRPRPRPNMSPRP: -0.315; RRIRGRPPRLPRPRPRPPNAPRP: 1.35. Next, RRIRYRPPRLPRPRPRPEYMPRP: -0.271; RRIRIRPPRLPRPRPRPKMDPRP: 0.0209; RRIRIRPPRLPRPRPRPQASPRP: -0.0941. With RRIRDRPPRLPRPRPRPDQYPRP the figure was 0.00642. With RRIRARPPRLPRPRPRPKIIPRP, the “shrunken log2 fold change” value is -0.287.

As for RRIRWRPPRLPRPRPRPIQAPRP, the “shrunken log2 fold change” value was -0.0237. Next, RRIRNRPPRLPRPRPRPTCTPRP: -0.0629. With RRIRYRPPRLPRPRPRPTISPRP the figure was -0.893. Next, RRIRMRPPRLPRPRPRPLDIPRP: -0.0561. Regarding RRIRPRPPRLPRPRPRPKQPPRP, the “shrunken log2 fold change” value is 0.0475. On to RRIRIRPPRLPRPRPRPHHTPRP, for which the “shrunken log2 fold change” value was -0.677. With RRIRKRPPRLPRPRPRPKWFPRP the figure was -0.039; with RRIRQRPPRLPRPRPRPMTYPRP, -0.0223; with RRIRERPPRLPRPRPRPWIDPRP, -0.0474.

RRIRSRPPRLPRPRPRPAKPPRP: the “shrunken log2 fold change” value is -0.146. Next, RRIRWRPPRLPRPRPRPPDHPRP: 0.594. Next, RRIRGRPPRLPRPRPRPVPDPRP: 0.958; RRIRGRPPRLPRPRPRPQWFPRP: 0.282; RRIRLRPPRLPRPRPRPFNNPRP: -0.426. With RRIRMRPPRLPRPRPRPYCQPRP the figure was -0.0783; with RRIRYRPPRLPRPRPRPGRAPRP, 0.17; with RRIRFRPPRLPRPRPRPNVMPRP, -0.166.

Regarding RRIRLRPPRLPRPRPRPFWWPRP, the “shrunken log2 fold change” value came to 0.483. Next, RRIRTRPPRLPRPRPRPDDMPRP: -0.0233; RRIRRRPPRLPRPRPRPNYHPRP: -0.223; RRIRQRPPRLPRPRPRPVHCPRP: -0.166.

RRIRERPPRLPRPRPRPQRMPRP: the “shrunken log2 fold change” value is -0.411. Next, RRIRCRPPRLPRPRPRPDNQPRP: -0.696; RRIRLRPPRLPRPRPRPEELPRP: 0.068.

RRIRKRPPRLPRPRPRPHVGPRP: the “shrunken log2 fold change” value was determined as 0.176. Next, RRIRSRPPRLPRPRPRPMDWPRP: -0.0477; RRIRERPPRLPRPRPRPSPNPRP: -0.328. Next, RRIRNRPPRLPRPRPRPLQHPRP: 0.198; RRIRPRPPRLPRPRPRPCSKPRP: 0.0051.

Turning to RRIRNRPPRLPRPRPRPLPLPRP, the “shrunken log2 fold change” value was determined as 0.187. On to RRIRRRPPRLPRPRPRPPKLPRP, for which the “shrunken log2 fold change” value was found to be 0.0716. Next, RRIRPRPPRLPRPRPRPAGSPRP: 0.206; RRIRKRPPRLPRPRPRPDWAPRP: -0.0624. Consider RRIRDRPPRLPRPRPRPETKPRP, for which the “shrunken log2 fold change” value was determined as 0.0655.

For the sequence RRIRVRPPRLPRPRPRPMEEPRP, the “shrunken log2 fold change” value was 0.215. As for RRIRGRPPRLPRPRPRPMMTPRP, the “shrunken log2 fold change” value came to 3.31. With RRIRQRPPRLPRPRPRPHPNPRP the figure was -0.389; with RRIRKRPPRLPRPRPRPSSMPRP, -0.0241. With RRIRGRPPRLPRPRPRPYYQPRP the figure was -0.537; with RRIRQRPPRLPRPRPRPSPGPRP, 0.194; with RRIRNRPPRLPRPRPRPIMPPRP, -0.225. Next, RRIRIRPPRLPRPRPRPGWVPRP: 0.28.

As to RRIRDRPPRLPRPRPRPWIFPRP, the “shrunken log2 fold change” value was found to be 0.148.

Turning to RRIRCRPPRLPRPRPRPGYKPRP, the “shrunken log2 fold change” value was -0.0902.

Take RRIRQRPPRLPRPRPRPKGHPRP: the “shrunken log2 fold change” value is -0.139.

With RRIRHRPPRLPRPRPRPHVEPRP, the “shrunken log2 fold change” value is -0.0794. Next, RRIRMRPPRLPRPRPRPHHLPRP: 0.0151. In the case of RRIRWRPPRLPRPRPRPMLKPRP, the “shrunken log2 fold change” value was -0.109. With RRIRNRPPRLPRPRPRPIEWPRP the figure was -0.00176; with RRIRKRPPRLPRPRPRPKKWPRP, 0.406; with RRIRKRPPRLPRPRPRPSTMPRP, -0.145. Next, RRIRIRPPRLPRPRPRPESWPRP: 0.249; RRIRQRPPRLPRPRPRPHQAPRP: -0.241.

With RRIRTRPPRLPRPRPRPGNYPRP, the “shrunken log2 fold change” value is 0.0108. Take RRIRWRPPRLPRPRPRPLNNPRP: the “shrunken log2 fold change” value is -0.323.

Regarding RRIRKRPPRLPRPRPRPYMQPRP, the “shrunken log2 fold change” value is -0.0263. In the case of RRIRKRPPRLPRPRPRPVHNPRP, the “shrunken log2 fold change” value was -0.0446.

For the sequence RRIRRRPPRLPRPRPRPHAPPRP, the “shrunken log2 fold change” value is 0.353. With RRIRYRPPRLPRPRPRPHWIPRP the figure was -0.398; with RRIRLRPPRLPRPRPRPMIAPRP, -0.141.

Take RRIRSRPPRLPRPRPRPEIQPRP: the “shrunken log2 fold change” value worked out at 0.00278. With RRIRGRPPRLPRPRPRPHCPPRP the figure was 0.084. Next, RRIRERPPRLPRPRPRPDLVPRP: -0.022. Next, RRIRRRPPRLPRPRPRPEQKPRP: 0.0588; RRIRIRPPRLPRPRPRPHRNPRP: -0.846; RRIRSRPPRLPRPRPRPHNHPRP: -0.576. Consider RRIRYRPPRLPRPRPRPPTAPRP, for which the “shrunken log2 fold change” value was -0.111. Next, RRIRYRPPRLPRPRPRPESRPRP: -0.12. Next, RRIRPRPPRLPRPRPRPADVPRP: 0.0118; RRIRDRPPRLPRPRPRPQIQPRP: -0.221. Next, RRIRQRPPRLPRPRPRPQIIPRP: -0.0763; RRIRFRPPRLPRPRPRPVFQPRP: 0.071; RRIRSRPPRLPRPRPRPWCIPRP: -0.0292. Regarding RRIRLRPPRLPRPRPRPQVFPRP, the “shrunken log2 fold change” value was 0.502.

Take RRIRQRPPRLPRPRPRPTNDPRP: the “shrunken log2 fold change” value is -0.296. With RRIRGRPPRLPRPRPRPHDQPRP the figure was 0.62.

Regarding RRIRERPPRLPRPRPRPKQVPRP, the “shrunken log2 fold change” value is -0.131.

As for RRIRMRPPRLPRPRPRPCSGPRP, the “shrunken log2 fold change” value was -0.146.

With RRIRTRPPRLPRPRPRPLDWPRP, the “shrunken log2 fold change” value worked out at 0.398. With RRIRWRPPRLPRPRPRPHHGPRP the figure was -0.234; with RRIRGRPPRLPRPRPRPCKMPRP, -0.0103; with RRIRPRPPRLPRPRPRPAFVPRP, 0.149. With RRIRARPPRLPRPRPRPMAVPRP the figure was 0.209.
